The record followed here is patent publication CN111778218A (SHANDONG KUANHEZHENG BIOTECHNOLOGY MEDICINE CO LTD, dated 2020).

Substitutions are numbered along the chain they refer to.

This experiment addresses T1, 牛血清白蛋白BSA (牛 (bovine), UniProt P02769 25-607).
T1 construct: also called 牛血清蛋白
Description: phage ELISA, BSA coated at 1 μg/mL. A general note: In an ELISA, binding on a coated surface is turned into a signal by an enzyme label.

T1 sequence (P02769 25-607 limits assumed): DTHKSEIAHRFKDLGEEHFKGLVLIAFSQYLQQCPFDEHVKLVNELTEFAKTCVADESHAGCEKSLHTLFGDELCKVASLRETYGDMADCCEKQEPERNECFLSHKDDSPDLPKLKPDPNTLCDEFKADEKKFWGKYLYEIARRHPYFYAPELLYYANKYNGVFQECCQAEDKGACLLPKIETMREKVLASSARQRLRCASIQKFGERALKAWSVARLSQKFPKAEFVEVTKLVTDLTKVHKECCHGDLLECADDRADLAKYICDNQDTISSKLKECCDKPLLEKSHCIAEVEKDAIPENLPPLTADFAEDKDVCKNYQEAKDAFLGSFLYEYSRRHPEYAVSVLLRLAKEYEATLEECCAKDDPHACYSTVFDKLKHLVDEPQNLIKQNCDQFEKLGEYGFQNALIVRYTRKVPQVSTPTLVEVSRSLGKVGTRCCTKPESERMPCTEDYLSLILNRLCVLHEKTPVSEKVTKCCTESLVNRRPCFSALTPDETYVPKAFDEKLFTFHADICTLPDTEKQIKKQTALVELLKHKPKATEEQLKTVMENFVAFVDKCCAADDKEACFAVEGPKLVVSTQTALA

B1: 噬菌体展示的单克隆抗体A9 (antibody, V domains shown)
VH: EVQLLESGGGLVQPGGSLRLSCAASGFTFSSYAMSWVRQAPGKGLEWVSGITNSGSSTSYADSVKGRFTISRDNSKNTLYLQMNSLRAEDTAVYYCAKGTDAFDYWGQGTLVTVSS
VL: DIQMTQSPSSLSASVGDRVTITCRASQSISSYLNWYQQKPGKAPKLLIYAASTLQSGVPSRFSGSGSGTDFTLTISSLQPEDFATYYCQQSNCSPATFGQGTKVEIKR
notes: also called A9抗体
As for B1, the binding result was “no binding”.

B2: 噬菌体展示的单克隆抗体E11 (antibody, V domains shown)
VH: B1 VH with G50S, T52D, N53S, S56Y, S57Y, G99N, T100S, A102S
VL: B1 VL with A50S, T53Y, S91Y, N92D, C93D, S94G, A96N
notes: also called E11抗体
As to B2, the binding result is on record as “no binding”.

B3: 噬菌体展示的单克隆抗体H9 (antibody, V domains shown)
VH: B1 VH with G50D, N53D, S54N, S56A, S59G, G99S, D101N, A102T
VL: B1 VL with L33I, A50D, T53S, S91N, N92S, C93N, A96S
notes: also called H9抗体
As for B3, the binding result was “no binding”.

B4: 噬菌体展示的单克隆抗体F10 (antibody, V domains shown)
VH: B1 VH with T52D, N53S, S54A, S56Y, S57Y, S59T, G99D, T100S, A102T
VL: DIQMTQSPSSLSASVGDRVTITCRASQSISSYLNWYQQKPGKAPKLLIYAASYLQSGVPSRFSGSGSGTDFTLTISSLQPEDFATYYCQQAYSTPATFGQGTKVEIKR
notes: also called F10抗体
For the molecule B4, the binding result was “no binding”.

B5: 噬菌体展示的单克隆抗体F5 (antibody, V domains shown)
VH: B1 VH with G50T, T52D, N53S, S54A, S56N, S59T, G99N, T100D, D101S, A102S
VL: B1 VL with A50S, T53W, S91Y, N92S, C93D, S94G, A96D
notes: also called F5抗体; 噬菌体展示F5抗体
Regarding B5, the binding result was “no binding”.
